Reference: US20120322725A1 (INDIANA UNIVERSITY RESEARCH AND TECHNOLOGY, published 2012)
Like-named read-outs stand apart in the source and are kept apart here. One block for each binder: values may come before it. Bridge positions count the residues as written; N and C are the ends. Square brackets hold non-standard residues; d marks the D form. Ends that are not written are not given here. PLA = 3-phenyllactic acid (2-hydroxy-3-phenylpropanoic acid); Abu(4-SO3H) = N[C@@H](CCS(=O)(=O)O)C(=O)O; PhLac = O=C(O)[C@@H](O)Cc1ccccc1

Legend:
GLP-1 receptor [1] = target: T1, GLP-1 receptor (UniProt P43220 24-463, limits assumed); assay: cell-based or functional assay
glucagon receptor [2] = target: T2, glucagon receptor (UniProt P47871 26-477, limits assumed); assay: cell-based or functional assay
T2 sequence (P47871 26-477 limits assumed): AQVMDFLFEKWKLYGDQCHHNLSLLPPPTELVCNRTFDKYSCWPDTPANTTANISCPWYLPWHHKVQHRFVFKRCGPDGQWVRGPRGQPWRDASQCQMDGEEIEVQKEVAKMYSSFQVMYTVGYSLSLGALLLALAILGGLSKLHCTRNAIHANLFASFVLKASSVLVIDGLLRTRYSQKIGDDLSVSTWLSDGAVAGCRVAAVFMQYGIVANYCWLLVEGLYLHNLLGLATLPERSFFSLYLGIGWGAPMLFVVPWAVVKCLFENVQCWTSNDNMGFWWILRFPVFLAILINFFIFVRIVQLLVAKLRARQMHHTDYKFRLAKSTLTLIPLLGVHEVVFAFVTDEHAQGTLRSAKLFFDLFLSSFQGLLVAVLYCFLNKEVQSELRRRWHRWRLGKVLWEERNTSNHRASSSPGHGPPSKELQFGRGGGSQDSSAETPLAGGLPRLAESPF

glucagon receptor [3] = target: T2, glucagon receptor; assay: cell-based or functional assay; remark: listed apart in the source
glucagon receptor [4] = target: T2, glucagon receptor; assay: column IC50(nM) beside the cAMP columns of Table H; taken as receptor binding
glucagon receptor [5] = target: T2, glucagon receptor; assay: cell-based or functional assay; remark: listed apart in the source
glucagon receptor [6] = target: T2, glucagon receptor; assay: cell-based or functional assay; remark: listed apart in the source
glucagon receptor [7] = target: T2, glucagon receptor; assay: cell-based or functional assay; remark: listed apart in the source
glucagon receptor [8] = target: T2, glucagon receptor; assay: cell-based or functional assay; remark: listed apart in the source
GLP-1 receptor [9] = target: T1, GLP-1 receptor; assay: cell-based or functional assay; remark: listed apart in the source
glucagon receptor [10] = target: T2, glucagon receptor; assay: receptor binding, method not described
glucagon receptor [11] = target: T2, glucagon receptor; assay: receptor binding, method not described; remark: listed apart in the source
glucagon receptor [12] = target: T2, glucagon receptor; assay: cell-based or functional assay; remark: listed apart in the source
glucagon receptor [13] = target: T2, glucagon receptor; assay: receptor binding, method not described; remark: listed apart in the source
glucagon receptor [14] = target: T2, glucagon receptor; assay: receptor binding, method not described; remark: listed apart in the source
glucagon receptor [15] = target: T2, glucagon receptor; assay: receptor binding (named so for the same values in Table I), method not described

IC50(nM) (cAMP, inhibit 0.8 mM Glucagon) (glucagon receptor [2]): 328 nM
Binder: {PLA}-FTSEYSKYLDSRRAQDFVQWLMNT-NH2 [[PLA^5, E^9]Glucagon(aa5-29)-NH2]

cAMP IC50 (glucagon receptor [3]): 98.3 nM
cAMP pA2 (glucagon receptor [3]): 6.77
IC50 (glucagon receptor [4]): 33.9 nM
B1: [hCys^9(SO3H)]Glucagon(aa5-29)-NH2 (peptide)
peptide: TFTSXYSKYLDSRRAQDFVQWLMNT
HELM: PEPTIDE1{T.F.T.S.[O=C([C@H](CCS(=O)(=O)O)N[*:1])[*:2]].Y.S.K.Y.L.D.S.R.R.A.Q.D.F.V.Q.W.L.M.N.T.[am]}$$$$V2.0; N-terminus assumed
SMILES: CSCC[C@H](NC(=O)[C@H](CC(C)C)NC(=O)[C@H](Cc1c[nH]c2ccccc12)NC(=O)[C@H](CCC(N)=O)NC(=O)[C@@H](NC(=O)[C@H](Cc1ccccc1)NC(=O)[C@H](CC(=O)O)NC(=O)[C@H](CCC(N)=O)NC(=O)[C@H](C)NC(=O)[C@H](CCCNC(=N)N)NC(=O)[C@H](CCCNC(=N)N)NC(=O)[C@H](CO)NC(=O)[C@H](CC(=O)O)NC(=O)[C@H](CC(C)C)NC(=O)[C@H](Cc1ccc(O)cc1)NC(=O)[C@H](CCCCN)NC(=O)[C@H](CO)NC(=O)[C@H](Cc1ccc(O)cc1)NC(=O)[C@H](CCS(=O)(=O)O)NC(=O)[C@H](CO)NC(=O)[C@@H](NC(=O)[C@H](Cc1ccccc1)NC(=O)[C@@H](N)[C@@H](C)O)[C@@H](C)O)C(C)C)C(=O)N[C@@H](CC(N)=O)C(=O)N[C@H](C(N)=O)[C@@H](C)O

cAMP IC50 (glucagon receptor [3]): 68.4 nM
cAMP pA2 (glucagon receptor [3]): 7.22
IC50 (glucagon receptor [4]): 41.5 nM
B3: [hCys^9(SO3H)]Glucagon(aa4-29)-NH2 (peptide)
peptide: GTFTSXYSKYLDSRRAQDFVQWLMNT
HELM: PEPTIDE1{G.T.F.T.S.[O=C([C@H](CCS(=O)(=O)O)N[*:1])[*:2]].Y.S.K.Y.L.D.S.R.R.A.Q.D.F.V.Q.W.L.M.N.T.[am]}$$$$V2.0; N-terminus assumed
SMILES: CSCC[C@H](NC(=O)[C@H](CC(C)C)NC(=O)[C@H](Cc1c[nH]c2ccccc12)NC(=O)[C@H](CCC(N)=O)NC(=O)[C@@H](NC(=O)[C@H](Cc1ccccc1)NC(=O)[C@H](CC(=O)O)NC(=O)[C@H](CCC(N)=O)NC(=O)[C@H](C)NC(=O)[C@H](CCCNC(=N)N)NC(=O)[C@H](CCCNC(=N)N)NC(=O)[C@H](CO)NC(=O)[C@H](CC(=O)O)NC(=O)[C@H](CC(C)C)NC(=O)[C@H](Cc1ccc(O)cc1)NC(=O)[C@H](CCCCN)NC(=O)[C@H](CO)NC(=O)[C@H](Cc1ccc(O)cc1)NC(=O)[C@H](CCS(=O)(=O)O)NC(=O)[C@H](CO)NC(=O)[C@@H](NC(=O)[C@H](Cc1ccccc1)NC(=O)[C@@H](NC(=O)CN)[C@@H](C)O)[C@@H](C)O)C(C)C)C(=O)N[C@@H](CC(N)=O)C(=O)N[C@H](C(N)=O)[C@@H](C)O

IC50(nM) (cAMP, inhibit 0.8 mM Glucagon) (glucagon receptor [2]): 64.8 nM
IC50 (glucagon receptor [10]): 12.3 nM
IC50 (glucagon receptor [11]): 12.3 nM
Binder: [PhLac]TSEYSKYLDSRRAQDFVQWLMNT-NH2 [[PLA6, E9]Glucagon(aa6-29)-NH2]

cAMP IC50 (glucagon receptor [3]): 133 nM
cAMP pA2 (glucagon receptor [3]): 7.16
cAMP IC50 (glucagon receptor [12]): 133 nM
cAMP pA2 (glucagon receptor [12]): 7.16
IC50 (glucagon receptor [13]): 59.1 nM
IC50 (glucagon receptor [4]): 59.1 nM
B5: [hCys^9(SO3H)]Glucagon(aa6-29)-NH2 (peptide)
peptide: FTS[Abu(4-SO3H)]YSKYLDSRRAQDFVQWLMNT-NH2
notes: also called [hCys(SO3)9]Glucagon(aa6-29)-NH2

Second part, the binder before the results:

Binder: HSQGTFTSDYARYLDARRAREFIKWLVRGRG [ANK2 (Bayer peptide)]
GLP-1 EC50 (GLP-1 receptor [1]): 0.28 nM

B2: [E9, E16K20(lactam), D28]G(4~29) (peptide)
peptide: GTFTSEYSKYLDERRAKDFVQWLMDT
HELM: PEPTIDE1{G.T.F.T.S.E.Y.S.K.Y.L.D.E.R.R.A.K.D.F.V.Q.W.L.M.D.T.[am]}$PEPTIDE1,PEPTIDE1,13:R3-17:R3$$$V2.0; N-terminus assumed
SMILES: CSCC[C@H](NC(=O)[C@H](CC(C)C)NC(=O)[C@H](Cc1c[nH]c2ccccc12)NC(=O)[C@H](CCC(N)=O)NC(=O)[C@@H](NC(=O)[C@H](Cc1ccccc1)NC(=O)[C@H](CC(=O)O)NC(=O)[C@@H]1CCCCNC(=O)CC[C@H](NC(=O)[C@H](CC(=O)O)NC(=O)[C@H](CC(C)C)NC(=O)[C@H](Cc2ccc(O)cc2)NC(=O)[C@H](CCCCN)NC(=O)[C@H](CO)NC(=O)[C@H](Cc2ccc(O)cc2)NC(=O)[C@H](CCC(=O)O)NC(=O)[C@H](CO)NC(=O)[C@@H](NC(=O)[C@H](Cc2ccccc2)NC(=O)[C@@H](NC(=O)CN)[C@@H](C)O)[C@@H](C)O)C(=O)N[C@@H](CCCNC(=N)N)C(=O)N[C@@H](CCCNC(=N)N)C(=O)N[C@@H](C)C(=O)N1)C(C)C)C(=O)N[C@@H](CC(=O)O)C(=O)N[C@H](C(N)=O)[C@@H](C)O
Glucagon IC50 (glucagon receptor [5]): 10 to 30 nM
GLP-1 EC50 (GLP-1 receptor [1]): 151 nM

Binder: GTFTSEYSKYLDSRRAQDFVQWLMNT-NH2 (also called peptide no) [[Glu^9]Glucagon(aa4-29)-NH2]
cAMP Inhibition IC50 (glucagon receptor [6]): 128 nM
cAMP pA2 (glucagon receptor [7]): 7.05

B4: [PLA6, D9, K12E16(Lactam), D28]G(6-29) (peptide)
peptide: TSDYSKYLDERRAQDFVQWLMDT
modifications: not fully specified; PLA at position 6, N-terminal to the letters given; lactam between K12 and E16
Glucagon IC50 (glucagon receptor [5]): 63 nM
GLP-1 EC50 (GLP-1 receptor [1]): 177 nM
Glucagon IC50 (glucagon receptor [8]): 13 nM
GLP-1 EC50 (GLP-1 receptor [9]): 21 nM

Binder: {PLA}-TSDYSKYLDERRAKDFVQWLMDT-NH2 (lactam 10-14) [[PLA6, D9, E16K20(lactam), D28]G(6-29)]
Glucagon IC50 (glucagon receptor [5]): 10 to 30 nM
Glucagon IC50 (glucagon receptor [8]): 6 nM
GLP-1 EC50 (GLP-1 receptor [9]): 4 nM

B6: [Glu^9]Glucagon(aa6-29)-NH2 (peptide)
peptide: FTSEYSKYLDSRRAQDFVQWLMNT-NH2
notes: also called [E^9]Glucagon(aa6-29)-NH2; peptide no
cAMP Inhibition IC50 (glucagon receptor [6]): 97 nM
cAMP (I/A)50 (glucagon receptor [7]): 486
cAMP pA2 (glucagon receptor [7]): 7.16
cAMP IC50 (glucagon receptor [12]): 97.2 nM
cAMP pA2 (glucagon receptor [12]): 7.16
IC50 (glucagon receptor [14]): 36 nM
IC50 (glucagon receptor [13]): 36.4 nM
IC50 (glucagon receptor [15]): 36.4 nM

Binder: {Ac-PLA}-TSEYSKYLDSRRAQDFVQWLMNT-NH2 [[Ac-PLA^6, E^9]Glucagon(aa6-29)-NH2]
IC50(nM) (cAMP, inhibit 0.8 mM Glucagon) (glucagon receptor [2]): 38.1 nM
